Source: patent US5747275, “Protein kinase required for RAS signal transduction” (The Regents of the University of California, dated 1998)

Assays:
Dsor1 (D-MEK) = Dsor1 (D-MEK) (Drosophila, UniProt Q24324); assay: yeast two-hybrid
Drosophila Ras1 = Drosophila Ras1 (Drosophila, UniProt P08646); assay: yeast two-hybrid system or bacterially-expressed fusion proteins

- binding result (Dsor1 (D-MEK)): no binding
- binding result (Drosophila Ras1): no binding
B1: Drosophila melanogaster kinase suppressor of ras (Ksr) (enzyme)
chain: MSSNNNAPASAPDTGSTNANDPISGSLSVDSNLVIIQDMIDLSANHLEGLRTQCAISSTLTQQEIRCLESKLVRYFSELLLAKMRLNERIPANGLVPHTTGNELRQWLRVVGLSQGTLTACLARLTTLEQSLRLSDEEIRQLLADSPSQREEEELRRLTRAMQNLRKCMESLESGTAASNNDPEQWHWDSWDRPTHIHRGSVGNIGLGNNSTASPRTHHRQHGVKGKNSALANSTNFKSGRQSPSATEELNSTQGSQLTLTLTPSPPNSPFTPSSGLSSSLNGTPQRSRGTPPPARKHQTLLSQSHVQVDGEQLARNRLPTDPSTDSHSSTSSDIFVDPNTNASSGGSSSNVLMVPCSPGVGHVGMGHAIKHRFTKALGFMATCTLCQKQVFHRWMKCTDCKYICHKSCAPHVPPSCGLPREYVDEFRHIKEQGGYASLPHVHGAAKGSPLVKKSTLGKPLHQQHGDSSSPSSSCTSSTPSSPALFQQRERELDQAGSSSSANLLPTPSLGKHQPSQFNFPNVTVTSSGGSGGVSLISNEPVPEQFPTAPATANGGLDSLVSSSNGHMSSLIGSQTSNASTAATLTGSLVNSTTTTSTCSFFPRKLSTAGVDKRTPFTSECTDTHKSNDSDKTVSLSGSASTDSDRTPVRVDSTEDGDSGQWRQNSISLKEWDIPYGDLLLLERIGQGRFGTVHRALWHGDVAVKLLNEDYLQDEHMLETFRSEVANFKNTRHENLVLFMGACMNPPYLAIVTSLCKGNTLYTYIHQRREKFAMNRTLLIAQQIAQGMGYLHAREIIHKDLRTKNIFIENGKVIITDFGLFSSTKLLYCDMGLGVPHNWLCYLAPELIRALQPEKPRGECLEFTPYSDVYSFGTVWYELICGEFTFKDQPAESIIWQVGRGMKQSLANLQSGRDVKDLLMLCWTYEKEHRPQFARLLSLLEHLPKKRLARSPSHPVNLSRSAESVF
